Measured values reported in patent US20110306096A1 (PACIFIC BIOSCIENCES OF CALIFORNIA, published 2011).
Positions count from the first letter of the chain named.

Target: T1, streptavidin (UniProt P22629 37-163, limits assumed)
T1 construct: Used at a 2-fold molar excess over the fusion protein
Experiment: HPLC after mixing the purified fusion protein with a 2-fold molar excess of streptavidin
Experimental: Each of the DNA sequences encoding the affinity peptides was added individually to the 5′ terminus of a His(10)-tagged phi29 DNA polymerase gene such that the polypeptide expressed from each construct was a fusion protein consisting of: N-terminus-biotinylation peptide-His(10)-phi29 pol-C-terminus. Each gene was expressed in E. coli cells co-expressing biotin ligase in culture medium containing biotin. These conditions are known to effect the in-vivo biotinylation of biotinylation peptides. Proteins were purified using Ni-NTA columns and then mixed with a 2-fold molar excess of streptavidin under conditions known to effect binding of streptavidin to biotinylated fusion proteins.
The degree of biotinylation of each protein was assessed by HPLC. […] None of the biotinylation peptides affected the polymerase activity when tested in a branching fraction assay performed, for example, as described in U.S. patent application No. 2010/0112645.

T1 sequence (P22629 37-163 limits assumed): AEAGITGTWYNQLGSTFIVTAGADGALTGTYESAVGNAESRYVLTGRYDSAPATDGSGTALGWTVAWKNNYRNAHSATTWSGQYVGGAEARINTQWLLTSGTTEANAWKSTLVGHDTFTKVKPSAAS

B1: SEQ ID NO 11 (other, phi29)
chain: LNDIFNAQKIEWHHHHHHHHHHHMKHMPRKMYSCDFETTTKVEDCRVWAYGYMNIEDHSEYKIGNSLDEFMAWVLKVQADLYFHNLKFDGAFIINWLERNGFKWSADGLPNTYNTIISRMGQWYMIDICLGYKGKRKIHTVIYDSLKKLPFPVKKIAKDFKLTVLKGDIDYHKERPVGYKITPEEYAYIKNDIQIIAEALLIQFKQGLDRMTAGSDSLKGFKDIITTKKFKKVFPTLSLGLDKEVRYAYRGGFTWLNDRFKEKEIGEGMVFDVNSLYPAQMYSRLLPYGEPIVFEGKYVWDEDYPLHIQHIRCEFELKEGYIPTIQIKRSRFYKGNEYLKSSGGEIADLWLSNVDLELMKEHYDLYNVEYISGLKFKATTGLFKDFIDKWTYIKTTSEGAIKQLAKLMLNSLYGKFASNPDVTGKVPYLKENGALGFRLGEEETKDPVYTPMGVFITAWARYTTITAAQACYDRIIYCDTDSIHLTGTEIPDVIKDIVDPKKLGYWAHESTFKRAKYLRQKTYIQDIYMKEVDGKLVEGSPDDYTDIKFSVKCAGMTDKIKKEVTFENFKVGFSRKMKPKPVQVPGGVVLVDDTFTIK
modifications: biotin on the lysine of the biotinylation peptide (in-vivo biotinylation by biotin ligase)
notes: N-terminus-biotinylation peptide-His(10)-phi29 pol-C-terminus; expressed in E. coli co-expressing biotin ligase, Ni-NTA purified
percent bound to streptavidin: ~100%

B2: SEQ ID NO 7 (other, phi29)
chain: B1 chain with I4L, N6E
modifications: biotin on the lysine of the biotinylation peptide (in-vivo biotinylation by biotin ligase)
notes: as for B1
percent bound to streptavidin: ~100%

B3: SEQ ID NO 6 (other, phi29)
chain: B1 chain with D3L, N6E
modifications: biotin on the lysine of the biotinylation peptide (in-vivo biotinylation by biotin ligase)
notes: as for B1
percent bound to streptavidin: ~100%

B4: SEQ ID NO 4 (other, phi29)
chain: B1 chain with L1I, I4L, N6S
modifications: biotin on the lysine of the biotinylation peptide (in-vivo biotinylation by biotin ligase)
notes: as for B1
percent bound to streptavidin: ~100%

B5: SEQ ID NO 12 (other, phi29)
chain: B1 chain with N6S
modifications: biotin on the lysine of the biotinylation peptide (in-vivo biotinylation by biotin ligase)
notes: as for B1
percent bound to streptavidin: ~100%

B6: SEQ ID NO 3 (other, phi29)
chain: B1 chain with I4F
modifications: biotin on the lysine of the biotinylation peptide (in-vivo biotinylation by biotin ligase)
notes: as for B1
percent bound to streptavidin: ~100%

B7: SEQ ID NO 10 (other, phi29)
chain: B1 chain with N6H
modifications: biotin on the lysine of the biotinylation peptide (in-vivo biotinylation by biotin ligase)
notes: as for B1
percent bound to streptavidin: ~100%

B8: SEQ ID NO 5 (other, phi29)
chain: B1 chain with L1I, N6E
modifications: biotin on the lysine of the biotinylation peptide (in-vivo biotinylation by biotin ligase)
notes: as for B1
percent bound to streptavidin: ~100%

B9: SEQ ID NO 8 (other, phi29)
chain: B1 chain with I4F, N6E
modifications: biotin on the lysine of the biotinylation peptide (in-vivo biotinylation by biotin ligase)
notes: as for B1
percent bound to streptavidin: ~100%
